Assay results published in US20260216242A1, “ALPP-SPECIFIC VARIANT ANTIGEN BINDING MOLECULES” (ALMAC DISCOVERY LIMITED, priority 2022, published 2026).

Key:
[1] = biological target: ALPP (Homo sapiens, UniProt P05187); assay: BLI binding kinetics, human ALPP immobilised on AR2G sensors (KD / KD apparent); settings: for hALPP Ka / hALPP Kd: VHH domains
Description: Binding kinetics were determined using the Biolayer Interferometry (BLI) Octet K2 system (Sartorius). Human ALPP, ALPPL2, ALPL (each fused with a cysteine stabilised leucine zipper) and ALPI, (SEQ ID NO: 265, SEQ ID NO: 266 and SEQ ID NO: 267 and SEQ ID NO: 264 respectively) were immobilised in sodium acetate pH5 buffer to AR2G sensors using amine coupling. All assays were conducted in PBS with a plate temperature of 25° C. Ka (M^−1s^−1), Kd (s^−1) and KD (nM) values were determined using Octet Data Analysis High Throughput software (ForteBio) for Biolayer Interferometry.
(§1) Binding kinetics were determined using the Biolayer Interferometry (BLI) Octet K2 or R4 system (Sartorius). Human ALPP, ALPPL2 and ALPL all fused with a disulphide stabilised leucine zipper (SEQ ID NO: 265, SEQ ID NO: 266, and SEQ ID NO: 267) and ALPI His (SEQ ID NO: 264) were used in BLI experiments. For KD apparent measurements, the ALPP proteins were immobilised in sodium acetate pH5 buffer to AR2G sensors using amine coupling. To measure 1:1 interactions, AHC biosensors were used to immobilise Fc-fused proteins. All assays were conducted in HBS-EP with a plate temperature of 25° C. Ka (M^−1s^−1), Kd (s^−1) and KD (nM) values were determined using Octet Data Analysis High Throughput software (Sartorius) for Biolayer Interferometry.
as §1, with “NO:264)” for “NO: 264)”

[2] = biological target: T1, ALPI His homodimer (Homo sapiens, UniProt P09923); assay: ELISA binding to ALPI; settings: 500 ng purified VHH
T1 sequence (P09923 with tags, fused parts or gaps): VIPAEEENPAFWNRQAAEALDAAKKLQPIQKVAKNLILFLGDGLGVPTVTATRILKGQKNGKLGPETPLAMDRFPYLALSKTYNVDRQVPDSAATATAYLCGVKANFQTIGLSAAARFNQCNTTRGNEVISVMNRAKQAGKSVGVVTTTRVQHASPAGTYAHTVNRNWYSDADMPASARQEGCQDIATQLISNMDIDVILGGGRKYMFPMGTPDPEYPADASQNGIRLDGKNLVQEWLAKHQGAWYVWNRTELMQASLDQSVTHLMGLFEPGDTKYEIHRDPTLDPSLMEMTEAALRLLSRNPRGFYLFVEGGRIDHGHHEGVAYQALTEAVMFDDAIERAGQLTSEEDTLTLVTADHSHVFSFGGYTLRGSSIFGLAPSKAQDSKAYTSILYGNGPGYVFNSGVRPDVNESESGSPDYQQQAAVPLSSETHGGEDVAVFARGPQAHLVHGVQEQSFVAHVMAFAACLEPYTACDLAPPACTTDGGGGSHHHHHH
Description: ELISA was used to test the binding and specificity of the VHHs. ALPP CysHis (SEQ ID NO: 263), ALPI His homodimer (SEQ ID NO: 264) or BSA (Thermo Fisher) were coated onto plates and 500 ng of each purified VHH added. Anti-Llama—HRP antibody was used for detection.

[3] = Thermal stability (Protein Thermal Shift assay); assay type: physicochemical; settings: VHH domains, first derivative analysis
Description: Thermal stability assays used Applied Biosystems StepOne Real Time PCR system with the Protein Thermal Shift™ dye kit (Thermo Fisher). The assay mix was set up so that the protein was at a final concentration of 20 µM in 20 μL. 5 μL of Thermal Shift™ buffer was added alongside 2.5 μL 8× Thermal Shift™ Dye. Assays were run using the StepOne software and data analysed using Protein Thermal Shift™ software. All data are from first derivative analysis.

ALPP, sequence (P05187 with tags, fused parts or gaps): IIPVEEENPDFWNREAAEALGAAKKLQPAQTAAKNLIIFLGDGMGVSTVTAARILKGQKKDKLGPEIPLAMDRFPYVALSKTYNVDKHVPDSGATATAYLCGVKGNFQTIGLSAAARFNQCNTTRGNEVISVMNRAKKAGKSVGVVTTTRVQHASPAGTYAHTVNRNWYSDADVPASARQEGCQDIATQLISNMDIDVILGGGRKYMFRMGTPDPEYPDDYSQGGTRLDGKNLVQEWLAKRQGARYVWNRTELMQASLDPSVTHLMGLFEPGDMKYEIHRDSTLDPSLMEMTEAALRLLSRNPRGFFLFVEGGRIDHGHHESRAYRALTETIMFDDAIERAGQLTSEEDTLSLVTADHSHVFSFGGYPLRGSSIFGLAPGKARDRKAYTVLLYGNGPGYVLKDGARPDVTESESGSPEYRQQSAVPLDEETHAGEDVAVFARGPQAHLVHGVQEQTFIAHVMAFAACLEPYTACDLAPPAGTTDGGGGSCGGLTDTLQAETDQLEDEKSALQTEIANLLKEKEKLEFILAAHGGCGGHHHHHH

| Molecule | hALPP Ka [1] [M⁻¹ s⁻¹] | hALPP Kd [1] [s⁻¹] | Kd ([1]; VHH domains (His-tagged monomers), PBS, 25° C., read-out: hALPP KD) [pM] | ELISA hALPI [2] | Tm [3] [°C] |
| --- | --- | --- | --- | --- | --- |
| A12: ALPP targeting VHH domain, SEQ ID NO: 19 (protein) VHH: QVHLVECGGGSVQAGGFLRLSCAASGPSLSNYAMGRFRQAPGKEREFVAGISWGGGRTSYTDSVKGRFTISRDNAKNTVYLQMNNLEPEDTGVYYCAGRYGRGRNVEYEYDYWGQGTKVTVSS | 360000 | <1e-07 | < 10 | No Binding | 76.3 |
| F09: ALPP targeting VHH domain, SEQ ID NO: 36 (protein) VHH: QVQLVESGGGSVQAGGSLRLSCAASGPSLSNYAMGWFRQAPGKEREFVAGISWGGGRTSCTDSVKGRFTISRDNAKNTVYLQMNNLKPEDTGVYYCAGRYGRGRNVEYEYDYWGQGTQVTVSS | 40600 | <1e-07 |  | No Binding | 72.1 |
| D11: ALPP targeting VHH domain, SEQ ID NO: 29 (protein) VHH: QVQLVESGGGSVQAGGSLRLSCAASGPSLSNYAMGWFRQAPGKEREFVAGISWGGGRTSYTDSVKGRFTISRDNAKNTVYLQMNNLKPEDTGVYYCAGRYGRGRNVEYEYDYWGQGTMVTVSS | 97700 | <1e-07 |  | No Binding | 78.1 |
| C06: ALPP targeting VHH domain, SEQ ID NO: 24 (protein) VHH: QVQLVESGGGLVQPGGSLRVSCAASGPSLSNYAMGWFRQAPGKEREFVAGISWGGGRTSYTDSVKGRFTISRDNAKNTVYLQMNNLKPEDTGVYYCAGRYGRGRNVEYEYDYWGQGTQVTVSS | 368000 | <1e-07 |  | No Binding | 71.6 |
| D08: ALPP targeting VHH domain, SEQ ID NO: 27 (protein) VHH: QVHLVESGGGSVQAGGSLRLSCAASGPSLSNYAMGWFRQAPGKEREFVAGISWGGGRTSYTDSVKGRFTISRDNAKNTVYLQMNNLKPEDTGVYYCAGRYGRGRNVEYEYDYWGQGTKVTVSS | 175000 | <1e-07 |  | No Binding | 64.9 |
| E11: ALPP targeting VHH domain, SEQ ID NO: 32 (protein) VHH: QVQLVESGGGSVQAGGSLRLSCAASGPSLSNFAMGWFRQPPGKEREFVAGISWGGGRTSYTDSVKGRFTISRDNAKNTVYLQMNNLKPEDTGVYYCAGRYGRGRNVEYEYDYWGQGTQVTVSS | 149000 | 0.0000018 |  | No Binding | 78.0 |
| A08: ALPP targeting VHH domain, SEQ ID NO: 18 (protein) VHH: QVQLVESGGGLVQAGESLRLACAASGTIFSGNAVGWYRQAPEKQREWVSSITDYGDTDYAEAVKGRFTISRDNAKNTVYLQMNSLKPEDTAVYYCYVYQRGESEEYWGQGTKVTVSS | 429000 | 0.000012 |  | No Binding | 71.4 |
| F12: ALPP targeting VHH domain, SEQ ID NO: 37 (protein) VHH: QVQLVESGGGLVEAGGSLRLSCAVSGSALSDYNIGWFRQAPGKEREFVARKTWDGSSTKYDDSVKGRFTVSIDNAKNTAYLQMNSLKTEDTAVYYCAAGRYSRVRGWEYDYWGQRTQVTVSS | 38600 | <1e-07 |  | No Binding | 62.9 |
| C05: ALPP targeting VHH domain, SEQ ID NO: 23 (protein) VHH: QVQLVESGGGLVQAGGSLRLSCAASRRSFSEYAMGWFRQAPGKEREFVAAIGWSGVIEYADSVKGRFTISRDNAKDTVYLQMNSLKPEDTAVYYCAAGLGIRVVSQTPAYWGQGTQVTVSS | 394000 | <1e-07 |  | No Binding | 80.6 |
| E12: ALPP targeting VHH domain, SEQ ID NO: 33 (protein) VHH: QVQLVESGGGSVQAGGSLRLSCAASGPSISNFAMGWFRQAPGKEREFVAGISWGGGRTNYLDSVKGRFTISRDNAKNMVHLQMNSLKPEDTTVYYCAGRYGRGRDVEYEYDYWGQGTQVTVSS | 39200 | 0.000028 |  | No Binding | 55.5 |
| H09: ALPP targeting VHH domain, SEQ ID NO: 39 (protein) VHH: QVQLVESGGGSVQTGGSLRLSCAASGPSLSNYAMGWFRQAPGKEREFVAGISWGGGRTNYLDSVKGRFTISRDNAKNTMYLQMNSLKPEDTAVYYCAGRYGRGRDVEYEYDYWGQGTQVTVSS | 58600 | <1e-07 |  | No Binding | 68.8 |
| H10: ALPP targeting VHH domain, SEQ ID NO: 40 (protein) VHH: QVQLVESGGGSVQTGGSLRLSCAASGPSLSNYAMGWFRQAPGKEREFVAGISWGGGRTNYLDSVKGRFTISRDNAKNTMYLQMNSLKPEDAAVYYCAGRYGRGRDVEYEYDYWGQGTQVTVSS | 45900 | 0.0000085 |  | No Binding | 64.9 |
